These results are taken from US20130280271A1 (INSTITUTE FOR CANCER RESEARCH, published 2013).

This series concerns the molecule itself. The experiment in a line: static light scattering; self-association.

Experimental: Light scattering analysis. Measurements were made with a Protein Solutions DynaPro Temperature Controlled Microsampler. Samples were adjusted to the desired concentration and particulates removed by filtration through a 0.2μ microcon device, and subsequent clearing by brief centrifugation at 14,000×g and 4° C. The protein concentration was then determined directly using absorbance at 280 nm and a calculated molar extinction coefficient, taking the average of 3 readings. All samples were analyzed under conditions of 10° C. in a buffer of 25 mM BisTris pH 6.1, 500 mM NaCl, 1 mM DTT, 0.1 mM EDTA, 5% glycerol. The molecular mass (MW I) was calculated from the static light scattering measurements (at least 300 acquisitions per protein sample) using the DynaPro software.

B1: ASV IN(1-207) (enzyme)
chain: PLREAKDLHTALHIGPRALSKACNISMQQAREVVQTCPHCNSAPALEAGVNPRGLGPLQIWQTDFTLEPRMAPRSWLAVTVDTASSAIVVTQHGRVTSVAAQHHWATAIAVLGRPKAIKTDNGSCFTSKSTREWLARWGIAHTTGIPGNSQGQAMVERANRLLKDKIRVLAEGDGFMKRIPTSKQGELLAKAMYALNHFERGENTKT
notes: also called IN fragment that lacks the CTD
For the protein B1, the binding result is recorded as “no binding (tested: 1.5 mg/ml)”.
